The target of experiment [1] is T1, mutated human CRTH2 with amino acid substitution (Homo sapiens, UniProt Q9Y5Y4, N185A/Y183A/Y184A).
T1 construct: inserting genes encoding various mutants with amino acid substitution obtained by deleting termination codons; expressed in transfected cells; host or cells: CHO-S cells (Lifetechnologies), transient (phmAG1-MNLinker vector)
T1 sequence (Q9Y5Y4 1-395 Y183A/Y184A/N185A): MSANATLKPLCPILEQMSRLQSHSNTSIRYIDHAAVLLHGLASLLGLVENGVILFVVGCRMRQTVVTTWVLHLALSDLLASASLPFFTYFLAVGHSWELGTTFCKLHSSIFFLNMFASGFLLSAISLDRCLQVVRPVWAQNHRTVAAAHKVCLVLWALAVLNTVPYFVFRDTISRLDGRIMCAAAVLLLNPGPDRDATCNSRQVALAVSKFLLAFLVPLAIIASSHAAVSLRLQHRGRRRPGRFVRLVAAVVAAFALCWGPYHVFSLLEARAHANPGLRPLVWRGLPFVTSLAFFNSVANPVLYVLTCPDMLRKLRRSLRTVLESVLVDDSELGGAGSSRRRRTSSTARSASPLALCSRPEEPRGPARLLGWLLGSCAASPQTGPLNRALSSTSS
The experiment is described as follows: Epitope analysis using CHO-S cells which express mutated human CRTH2 with amino acid substitution. The class given is binding. The settings on record: mutant Y183A, Y184A, and N185A; antibody 10 μg/mL; relative to wild-type = 100%. In a few lines:
(§1)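 CHO-S cells transiently expressing alanine-substituted human CRTH2 extracellular mutants, C-terminally Azami-Green tagged, 24 h post-transfection. Antibodies at 10 μg/mL, 4 °C 1 h, then Alexa647 anti-IgG secondary 4 °C 1 h; flow cytometry on Azami-Green-positive cells. Reactivity = Alexa647 intensity divided by Azami-Green intensity.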

Experiment [2] concerns the target T2, mutated human CRTH2 with amino acid substitution (Homo sapiens, UniProt Q9Y5Y4, I180A/M181A).
T2 construct: inserting genes encoding various mutants with amino acid substitution obtained by deleting termination codons; expressed in transfected cells; host or cells: CHO-S cells (Lifetechnologies), transient (phmAG1-MNLinker vector)
T2 sequence (Q9Y5Y4 1-395 I180A/M181A): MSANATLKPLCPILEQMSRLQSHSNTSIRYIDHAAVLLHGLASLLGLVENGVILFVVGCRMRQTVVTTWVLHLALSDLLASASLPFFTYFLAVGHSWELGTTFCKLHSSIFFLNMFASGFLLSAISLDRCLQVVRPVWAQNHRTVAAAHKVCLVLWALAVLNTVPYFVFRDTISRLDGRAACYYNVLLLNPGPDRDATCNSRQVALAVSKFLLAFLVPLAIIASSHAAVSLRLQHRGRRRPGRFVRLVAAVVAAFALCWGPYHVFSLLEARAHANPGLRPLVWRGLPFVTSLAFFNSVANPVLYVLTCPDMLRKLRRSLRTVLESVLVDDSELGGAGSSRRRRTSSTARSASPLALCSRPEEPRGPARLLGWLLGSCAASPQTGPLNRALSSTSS
The experiment is described as above. The settings on record: mutant I180A and M181A; antibody 10 μg/mL; relative to wild-type = 100%. Type of experiment: binding. The gist of the method: as §1

B1: LV0HV1: humanized Lym2 antibody, VL LV0 (SEQ ID NO: 33), VH HV1 (SEQ ID NO: 51) (antibody, V domains shown)
VH: EVQLVESGGGVVQPGRSLRLSCAASGFTFSNYYMAWVRQAPGKGLEWVATISYDGSSTYYRDSVKGRFTISRDNAKNSLYLQMNSLRAEDTATYYCARHRGYYYSGAGYFDYWGQGTMVTVSS
VL: DIVMTQTPLSLPVTPGESASISCRSSQSLEYSDGYTYLEWYLQKPGQSPQVLIYGVSNRFSGVPDRFSGSGSGTDFTLKISRVEAEDVGVYYCFQATHDPLTFGQGTKLEIK
In the case of B1, the “reactivity against cells expressing mutated human CRTH2” value in experiment [1] and in experiment [2] was “lost” throughout.

For the origin of these results see patent US10100120B2, “Antibody which specifically binds to human CRTH2” (KYOWA HAKKO KIRIN CO., LTD, priority 2015, dated 2018).
